Earlier results, collected in article PMC2883863.

Molecular target: Cys36 (UniProt position 73, FWTPWCPFCNA)
Conditions: not stated (quoted literature value for Mtb DsbE)

Disulfide bond forming protein DsbE (Mtb DsbE, Rv2878c, MPT53) (Mycobacterium tuberculosis)
pKa: 5.35 ± 0.2
